Reference: the supplement of paper PMC12338614
± gives the uncertainty stated by the source.

B1: library; numbered along this chain (parent)
chain: MEVVDPQQLGMFTEGELMSVGMDTFIHRIDSTEVIYQPRRKRAKLIGKYLMGDLLGEGSYGKVKEVLDSETLCRRAVKILKKKKLRRIPNGEANVKKEIQLLRRLRHKNVIQLVDVLYNEEKQKMYMVMEYCVCGMQEMLDSVPEKRFPVCQAHGYFCQLIDGLEYLHSQGIVHKDIKPGNLLLTTGGTLKISDLGVAEALHPFAADDTCRTSQGSPAFQPPEIANGLDTFSGFKVDIWSAGVTLYNITTGLYPFEGDNIYKLFENIGKGSYAIPGDCGPPLSDLLKGMLEYEPAKRFSIRQIRQHSWFRKKHPPAEAPVPIPPSPDTKDRWRSMTVVPYLEDLHGADEDEDLFDIEDDIIYTQDFTVPGQVPEEEASHNGQRRGLPKAVCMNGTEAAQLSTKSRAEGRAPNPARKACSASSKIRRLSACKQQ

Variants of: B1
Experiment: STK11 functional score (HeLa growth suppression), rescaled enrichment; synonymous median = 1, nonsense median = 0 (normalised score)
Details: with HeLa; variant type: missense
Protocol: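 Deep mutational scan (TileSeq/POPCode codon randomisation) of full-length codon-optimised STK11 cDNA integrated at a Bxb1 landing pad (AAVS1) in HeLa cells. Restoring functional STK11 suppresses HeLa proliferation. Variant frequencies were measured by NGS before and after about two weeks of growth. The error-corrected enrichment log-ratio was rescaled so that synonymous median = 1 and nonsense median = 0, scores above 1 were compressed, and codon-level and three biological replicate scores were combined; error is the bootstrapped standard error. Scale: synonymous median = 1, nonsense median = 0; below 0.5 = damaging.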

First: E121N
Second: G163F
The STK11 functional score of the first is higher: 1.57 ± 0.23 for the first, -0.122 ± 0.17 for the second.

S142N and R409Y are within error of each other in STK11 functional score: 1.16 ± 0.33 for the first, 1.53 ± 0.19 for the second.

First: T185D
Second: A389I
The STK11 functional score of the first is lower: 0.415 ± 0.37 for the first, 1.59 ± 0.24 for the second.

Compared with L245Y, R211S is higher in STK11 functional score: -0.0275 ± 0.097 for the first, 1.32 ± 0.15 for the second.

N259D and R40D are within error of each other in STK11 functional score: 1.12 ± 0.63 for the first, 1.68 ± 0.41 for the second.

R147F and R147Q are within error of each other in STK11 functional score: 0.668 ± 0.1 for the first, 0.506 ± 0.12 for the second.

K64Y and D327G are within error of each other in STK11 functional score: 1.39 ± 0.39 for the first, 0.999 ± 0.22 for the second.

L290C and L290M are within error of each other in STK11 functional score: 1.06 ± 0.3 for the first, 0.891 ± 0.12 for the second.

H313A and S334F are within error of each other in STK11 functional score: 1.33 ± 0.14 for the first, 1.1 ± 0.45 for the second.

S334E and S334N are within error of each other in STK11 functional score: 1.53 ± 0.17 for the first, 1.58 ± 0.47 for the second.

S334Y and V337P are within error of each other in STK11 functional score: 1.55 ± 0.17 for the first, 1.58 ± 0.14 for the second.

K41E and L341T are within error of each other in STK11 functional score: 1.42 ± 0.65 for the first, 1.29 ± 0.32 for the second.

L341I and L341P are within error of each other in STK11 functional score: 1.56 ± 0.18 for the first, 1.54 ± 0.14 for the second.

Compared with P38K, N181W is lower in STK11 functional score: 1.6 ± 0.22 for the first, -0.0742 ± 0.09 for the second.

First: H379W
Second: A414K
The STK11 functional score of the first is lower: 0.788 ± 0.29 for the first, 1.55 ± 0.26 for the second.

A414M and L190M are within error of each other in STK11 functional score: 1.56 ± 0.22 for the first, 1.21 ± 0.18 for the second.

Compared with L190D, L190I is higher in STK11 functional score: -0.215 ± 0.095 for the first, 1.04 ± 0.35 for the second.

Compared with K96V, R383P is higher in STK11 functional score: 0.667 ± 0.17 for the first, 1.31 ± 0.26 for the second.

H154S and H154F are within error of each other in STK11 functional score: 0.47 ± 0.11 for the first, 0.39 ± 0.065 for the second.

T367L and E130T are within error of each other in STK11 functional score: 1.46 ± 0.18 for the first, 1.33 ± 0.34 for the second.

Going from E130Q to E130S, the STK11 functional score rises from 0.94 ± 0.3 to 1.4 ± 0.09.

S325T and G385P are within error of each other in STK11 functional score: 1.17 ± 0.36 for the first, 1.26 ± 0.32 for the second.

Going from P319Q to R103I, the STK11 functional score falls from 1.39 ± 0.2 to 1 ± 0.15.

R426K and R426L are within error of each other in STK11 functional score: 1.49 ± 0.28 for the first, 1.4 ± 0.16 for the second.

Going from K78N to K78Q, the STK11 functional score rises from 0.219 ± 0.18 to 1.1 ± 0.12.

D365F and I35S are within error of each other in STK11 functional score: 0.997 ± 0.31 for the first, 1.49 ± 0.2 for the second.

I35T and I35R are within error of each other in STK11 functional score: 1.34 ± 0.71 for the first, 1.61 ± 0.21 for the second.

T209C and T209W are within error of each other in STK11 functional score: 1.12 ± 0.13 for the first, 1.28 ± 0.47 for the second.

I360R and Y261W are within error of each other in STK11 functional score: 0.694 ± 0.27 for the first, 0.609 ± 0.091 for the second.

Y261V and L101M are within error of each other in STK11 functional score: 1.22 ± 0.4 for the first, 1.62 ± 0.22 for the second.

First: L101W
Second: R75A
The STK11 functional score of the first is lower: -0.0513 ± 0.12 for the first, 1.68 ± 0.19 for the second.

C391R and C391I are within error of each other in STK11 functional score: 1.6 ± 0.29 for the first, 1.07 ± 0.38 for the second.

Going from G257L to V320P, the STK11 functional score rises from 0.765 ± 0.18 to 1.56 ± 0.33.

V320L and L201W are within error of each other in STK11 functional score: 0.723 ± 0.1 for the first, 0.55 ± 0.12 for the second.

Compared with E375L, L183E is lower in STK11 functional score: 1.04 ± 0.15 for the first, 0.3 ± 0.082 for the second.

Compared with G370W, A206E is lower in STK11 functional score: 1.41 ± 0.31 for the first, 0.305 ± 0.46 for the second.

E374V and I424G are within error of each other in STK11 functional score: 0.836 ± 0.41 for the first, 0.657 ± 0.18 for the second.

Compared with I424W, D115Y is lower in STK11 functional score: 0.789 ± 0.13 for the first, 0.294 ± 0.094 for the second.

G47R and L344G are within error of each other in STK11 functional score: 1.31 ± 0.58 for the first, 0.8 ± 0.41 for the second.

H306T and D330C are within error of each other in STK11 functional score: 1.54 ± 0.19 for the first, 1.33 ± 0.33 for the second.

First: D176Y
Second: R310T
The STK11 functional score of the first is lower: -0.343 ± 0.096 for the first, 0.923 ± 0.65 for the second.

R405C and E376K are within error of each other in STK11 functional score: 1.3 ± 0.34 for the first, 1.41 ± 0.61 for the second.

E376A and S299D are within error of each other in STK11 functional score: 1.4 ± 0.35 for the first, 1.18 ± 0.16 for the second.

A93L and H345G are within error of each other in STK11 functional score: 1.12 ± 0.26 for the first, 1.49 ± 0.39 for the second.

L400F and L400W are within error of each other in STK11 functional score: 1.46 ± 0.14 for the first, 1.56 ± 0.3 for the second.

S378W and A198F are within error of each other in STK11 functional score: 0.76 ± 0.1 for the first, 0.731 ± 0.25 for the second.

First: A198T
Second: K287A
The STK11 functional score of the first is higher: 1.23 ± 0.13 for the first, 0.932 ± 0.14 for the second.

K287N and K287Q are within error of each other in STK11 functional score: 1.49 ± 0.57 for the first, 1.19 ± 0.51 for the second.

V372N and V34A are within error of each other in STK11 functional score: 1.54 ± 0.25 for the first, 1.03 ± 0.57 for the second.

E70D and D348Q are within error of each other in STK11 functional score: 1.05 ± 0.45 for the first, 1.54 ± 0.22 for the second.

First: Q37F
Second: A205I
The STK11 functional score of the first is lower: 0.309 ± 0.29 for the first, 1.47 ± 0.18 for the second.

First: L55I
Second: L55S
The STK11 functional score of the first is higher: 1.39 ± 0.34 for the first, 0.693 ± 0.14 for the second.

Q123D and Q123P are within error of each other in STK11 functional score: 0.981 ± 0.62 for the first, 0.451 ± 0.33 for the second.

D194V and A377H are within error of each other in STK11 functional score: -0.261 ± 0.096 for the first, 0.0602 ± 0.3 for the second.

First: A377T
Second: D68L
The STK11 functional score of the first is higher: 1.59 ± 0.28 for the first, 0.441 ± 0.14 for the second.

V20R and K48I are within error of each other in STK11 functional score: 1.56 ± 0.14 for the first, 1.34 ± 0.13 for the second.

V114L and V114P are within error of each other in STK11 functional score: 0.271 ± 0.093 for the first, 0.872 ± 0.53 for the second.

F255W and F255I are within error of each other in STK11 functional score: 0.941 ± 0.1 for the first, 1.36 ± 0.38 for the second.

V338D and V338L are the same in STK11 functional score: 1.39 ± 0.18 for the first, 1.39 ± 0.22 for the second.

Going from N94Y to N94S, the STK11 functional score rises from 0.568 ± 0.34 to 1.27 ± 0.34.

M129K and H174V are within error of each other in STK11 functional score: 1.35 ± 0.58 for the first, 0.69 ± 0.11 for the second.

First: L263V
Second: L263R
The STK11 functional score of the first is lower: 0.76 ± 0.22 for the first, 1.39 ± 0.24 for the second.

Going from L263A to L263G, the STK11 functional score rises from 0.39 ± 0.12 to 0.983 ± 0.18.

A218M and A218S are within error of each other in STK11 functional score: 1.35 ± 0.59 for the first, 1.09 ± 0.17 for the second.

Going from A218L to E223I, the STK11 functional score falls from 0.905 ± 0.11 to 0.17 ± 0.24.

Compared with P315E, T336N is lower in STK11 functional score: 1.57 ± 0.26 for the first, 0.774 ± 0.2 for the second.

First: T336A
Second: G346D
The STK11 functional score of the first is higher: 1.52 ± 0.23 for the first, 0.435 ± 0.27 for the second.

Compared with G346M, Y131W is lower in STK11 functional score: 1.58 ± 0.15 for the first, 0.739 ± 0.093 for the second.

Q364S and P411D are within error of each other in STK11 functional score: 1.4 ± 0.19 for the first, 1.59 ± 0.15 for the second.

V4G and V4P are the same in STK11 functional score: 1.03 ± 0.13 for the first, 1.03 ± 0.13 for the second.

Going from L105V to L105Y, the STK11 functional score rises from 0.842 ± 0.15 to 1.36 ± 0.08.

L105S and E2V are within error of each other in STK11 functional score: 1.29 ± 0.15 for the first, 1.36 ± 0.83 for the second.

T212N and T212S are within error of each other in STK11 functional score: 0.481 ± 0.46 for the first, 0.909 ± 0.12 for the second.

L54W and G61V are within error of each other in STK11 functional score: 0.575 ± 0.083 for the first, 0.688 ± 0.096 for the second.

Going from L80N to L80R, the STK11 functional score falls from 0.951 ± 0.37 to 0.408 ± 0.11.

L80E and D352W are within error of each other in STK11 functional score: 1.41 ± 0.38 for the first, 0.86 ± 0.64 for the second.

D352K and G215T are within error of each other in STK11 functional score: 1.55 ± 0.13 for the first, 1.19 ± 0.51 for the second.

Going from G215W to G215M, the STK11 functional score rises from 0.29 ± 0.091 to 0.509 ± 0.12.

G215R and L50W are within error of each other in STK11 functional score: 0.426 ± 0.24 for the first, 0.44 ± 0.99 for the second.

Going from L50M to P321D, the STK11 functional score rises from 0.814 ± 0.23 to 1.55 ± 0.18.

F264T and F264S are within error of each other in STK11 functional score: 0.96 ± 0.56 for the first, 0.597 ± 0.21 for the second.

Going from F264W to F354R, the STK11 functional score rises from 0.216 ± 0.074 to 1.53 ± 0.16.

Going from F354P to Y118N, the STK11 functional score falls from 1.42 ± 0.14 to 0.286 ± 0.15.

In the case of A406H, the STK11 functional score is reported as 1.6 ± 0.25.
